Assay results from patent US20100075374A1, “Methods for capturing nascent proteins” (AMBERGEN, INC., priority 2007, published 2010).

What was measured:
[1] = target: T1, human recombinant Src pp^60 tyrosine kinase (Homo sapiens, UniProt P12931); assay: kinase substrate profiling on photo-transferred proteins, phosphotyrosine detection; assay type: biochemical; conditions: plus ATP kinase reaction, 30 min at 37° C.
T1 construct: purchased Invitrogen Corporation

[2] = target: T2, human recombinant ZAP-70 tyrosine kinase (Homo sapiens, UniProt P43403); assay: as above; assay type: biochemical; conditions: plus ATP kinase reaction, 30 min at 37° C.
T2 construct: purchased Invitrogen Corporation
T2 sequence (P43403 1-619): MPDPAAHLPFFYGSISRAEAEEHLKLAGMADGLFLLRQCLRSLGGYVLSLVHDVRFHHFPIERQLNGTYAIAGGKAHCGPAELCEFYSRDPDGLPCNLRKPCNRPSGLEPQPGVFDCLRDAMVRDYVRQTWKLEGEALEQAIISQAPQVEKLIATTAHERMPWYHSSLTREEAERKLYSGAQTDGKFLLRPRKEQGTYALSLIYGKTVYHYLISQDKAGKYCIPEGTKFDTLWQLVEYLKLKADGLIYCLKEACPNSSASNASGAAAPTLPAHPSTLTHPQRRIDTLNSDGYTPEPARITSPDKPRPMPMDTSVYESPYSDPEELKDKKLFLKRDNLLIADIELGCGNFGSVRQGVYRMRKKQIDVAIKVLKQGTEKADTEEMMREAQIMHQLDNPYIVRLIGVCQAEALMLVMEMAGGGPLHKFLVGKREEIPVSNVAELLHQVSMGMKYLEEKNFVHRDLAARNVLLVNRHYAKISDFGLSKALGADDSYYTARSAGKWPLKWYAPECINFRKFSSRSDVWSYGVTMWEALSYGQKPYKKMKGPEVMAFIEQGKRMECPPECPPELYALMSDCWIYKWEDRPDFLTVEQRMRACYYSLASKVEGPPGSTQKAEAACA

[3] = target: T3, MDM2 bait (Homo sapiens, UniProt Q00987); assay: p53-MDM interaction assay, pre-formed complexes of cell-free expressed proteins, contact photo-transfer; assay type: binding; conditions: complexes formed before contact photo-transfer
T3 construct: made in house; host or cells: rabbit reticulocyte lysate, coupled cell-free transcription/translation
T3 sequence (Q00987 whole entry): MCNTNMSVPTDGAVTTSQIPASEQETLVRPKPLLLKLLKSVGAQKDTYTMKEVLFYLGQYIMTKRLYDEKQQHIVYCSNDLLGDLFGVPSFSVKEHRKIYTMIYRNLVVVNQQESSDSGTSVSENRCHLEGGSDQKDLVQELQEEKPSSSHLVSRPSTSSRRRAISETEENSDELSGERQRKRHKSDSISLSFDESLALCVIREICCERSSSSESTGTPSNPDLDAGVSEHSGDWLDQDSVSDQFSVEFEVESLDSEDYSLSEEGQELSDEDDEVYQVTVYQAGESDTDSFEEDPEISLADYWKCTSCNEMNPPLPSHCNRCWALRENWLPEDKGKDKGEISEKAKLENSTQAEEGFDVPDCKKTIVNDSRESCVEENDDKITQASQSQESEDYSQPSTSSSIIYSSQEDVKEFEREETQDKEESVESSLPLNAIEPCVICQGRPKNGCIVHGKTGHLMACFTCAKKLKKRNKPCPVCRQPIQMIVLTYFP
Procedure: BODIPY-FL-tRNA^COMPLETE was used for fluorescence labeling (at 2 μM) instead of BODIPY-FL-tRNA^Lys. The cell-free expressed p53 “probe” was labeled only with BODIPY-FL using the BODIPY-FL-tRNA^COMPLETE and was not labeled with PC-biotin in any way. […] The “bait” proteins were labeled only with PC-Biotin-tRNA^COMPLETE (at 1 μM) and not with BODIPY-FL in any way. The Translation Dilution Buffer (TDB) used to stop the reaction and prepare the sample contained no BSA or other protein carrier, 10 mM DTT instead of 2 mM and additionally contained 20 mM EDTA added from a 500 mM pH 8.0 stock and 4 mM cycloheximide (Sigma-Aldrich, St. Louis, Mo.) added from a 355 mM stock in DMSO.
All steps were performed at +4° C. or on an ice water bath and all reagents and samples were also kept under these conditions during the procedure. […] To facilitate addition of small bead volumes to the samples, the beads were initially prepared to a 10% (v/v) bead suspension with 5 mM DTT in PBS. The samples, now 80 μL each, were then mixed with 10 μL of the 10% (v/v) bead suspension corresponding to addition of 1 μL packed bead volume. After capture on the NeutrAvidin beads for 1 hr, beads were washed by mixing 3× briefly (briefly=5 sec vortex mix) in 400 bead volumes per wash of PBS pH 7.5 and 5 mM DTT. […]

[4] = target: T4, PKCα (Homo sapiens, UniProt P17252); assay: PMA mediated PKCα sub-cellular translocation measured by kinase activity after photocleavable antibody isolation; assay type: cell-based; conditions: HeLa cells, 200 nM PMA for 5 min, n=4
T4 construct: isolate and photo-release endogenous PKCa from the undiluted detergent fractionated HeLa cell extracts; endogenous in cells; host or cells: HeLa cells (ATCC)
Procedure: Cultured HeLa cells (ATCC; Manassas, Va.) were stimulated for 5 min with 200 nM Phorbol-12-Myristate-13-Acetate (PMA; EMD Biosciences, Inc., San Diego, Calif.) and subsequently detergent fractionated into sub-cellular compartments according to reported procedures [Ramsby et al. (1994) Electrophoresis 15, 265-277; Ramsby & Makowski. (1999) Methods Mol Biol 112, 53-66; Chiang et al. (2000) J Biochem Biophys Methods 46, 53-68]. PMA is a potent activator of PKCα and is well known to cause translocation of the kinase from the cytosolic to the membrane sub-cellular compartments [Ross & Joyner. (1997) Endothelium 5, 321-332; Bazan & Rapoport. (1996) JPharmacol Toxicol Methods 36, 87-95; Yazlovitskaya & Melnykovych. (1995) Cancer Lett 88, 179-183].
A photocleavable antibody conjugated solid affinity matrix was prepared and used to isolate and photo-release the antigen into solution essentially as described in Example 2 except that in this case, a photocleavable anti-IgG secondary antibody was used to immobilize the unlabeled primary antibody onto the solid affinity matrix. This antibody affinity matrix was used to isolate and photo-release endogenous PKCa from the undiluted detergent fractionated HeLa cell extracts. […]

Molecule: CK: cell-free expressed human casein kinase II, contact photo-transferred to microarray
- phosphorylation by Src pp^60 [1]: significant phosphorylation
- phosphorylation by ZAP-70 [2]: does not phosphorylate

Molecule: p53 “probe”: cell-free expressed human p53 labeled only with BODIPY-FL using BODIPY-FL-tRNA COMPLETE
- binding of cell-free expressed p53 probe to MDM bait [3]: selective binding

Molecule: CCCCCCCCCCCCCC(=O)O[C@@H]1[C@@H](C)[C@@]2(O)[C@@H](C=C(CO)C[C@]3(O)C(=O)C(C)=C[C@@H]23)[C@@H]2C(C)(C)[C@]12OC(C)=O [PMA, Phorbol-12-Myristate-13-Acetate]
- PKCα distribution, membrane, based on kinase activity ([4]; baseline 21±2% membrane): 84±3%
- PKCα distribution, cytosol, based on kinase activity ([4]; baseline 79±7% cytosol): 16±4%
